Laboratory results published in doi:10.1101/2021.11.09.467869 (bioRxiv, 2021).

Molecular target: the molecule itself
Test: SEC + other: negative-staining EM

B1: L6 TIR domain (L6^TIR), residues 26-231 (domain or fragment, UniProt Q40253 26-231, looked up)
chain: PNSKDSIVNDDDDSTSEVDAISDSTNPSGSFPSVEYEVFLSFRGPDTREQFTDFLYQSLRRYKIHTFRDDDELLKGKEIGPNLLRAIDQSKIYVPIISSGYADSKWCLMELAEIVRRQEEDPRRIILPIFYMVDPSDVRHQTGCYKKAFRKHANKFDGQTIQNWKDALKKVGDLKGWHIGKNDKQGAIADKVSADIWSHISKENLI
B1: binds.
